Several values for one entry are separate records, joined by “and”; a condition that tells them apart may be missing. Equal values may be shown once.
Columns and labels:
[1] = Dextran influx into GUVs (pore formation); type: biochemical; conditions: for GUVs filled with dextran-AF488, average %: 3 kDa dextran; for GUVs filled with 70 kDa FITC-dextran, average %: 70 kDa dextran
From the text: (§1) GUVs were composed of 1,2-dioleoyl-sn-glycero-3-phosphocholine (DOPC), cholesterol (both AvantiPolar Lipids, United States), Atto 647 N 1,2-dioleoyl-sn-glycero-3-phosphoethanolamine (DOPE; Sigma-Aldrich), and one of the following glycolipids at a molar ratio of 64.7:30:0.3:5. The glycolipids are globotriaosylceramide (Gb3, Matreya), FSL-Gb3 (Function-Spacer-Lipid with globotriaosyl saccharide), and corresponding FSL-isoGb3 (Function-Spacer-Lipid with iso-globotriaosyl saccharide) synthetized as previously described[84],[85], FSL-A(tri) (Function-Spacer-Lipid with blood group A trisaccharide; Sigma-Aldrich), FSL-B(tri) (Function-Spacer-Lipid with blood group B trisaccharide; Sigma-Aldrich) or lactosylceramide (LC, Sigma-Aldrich).
GUVs were prepared by the electroformation method as earlier described. Briefly, lipids dissolved in chloroform of a total concentration of 0.5 mg/mL were spread on indium tin oxid-covered (ITO) glass slides and dried in a vacuum for at least 1 h or overnight. Two ITO slides were assembled to create a chamber filled with sucrose solution adapted to the osmolarity of the imaging buffer of choice, either HBSS (live-cell imaging) or PBS (GUVs only imaging). Then, an alternating electrical field with a field strength of 1 V/mm was implemented for 2.5 h at RT. Later we observed the GUVs in chambers manually built as described.
Dextran Alexa Fluor 488 (Dextran-AF488) with a MW of 3 kDa (Thermo Fischer) or 70 kDa FITC-dextran (Sigma-Aldrich) was added to the observation chamber (0.02 mg/mL) in PBS buffer together with 200 nM SaroL-1. Then wt Gb3-containing GUVs (40 µL) were added for imaging and monitoring of pore-formation. Dextran-AF488 was present in the GUVs’ surrounding solution. For PNPG treatment, 200 nM of SaroL-1 was pre-incubated with 10 mM PNPG dissolved in DMSO for 15 min at RT in the observation chamber. Directly after, dextran-AF488 (0.02 mg/mL) and 40 µL wt Gb3-containing GUVs were added to the observation chamber and monitored using confocal microscopy.

[2] = system: H1299 cells; assay: Cell proliferation (MTT) assay; type: cell-based, human
Procedure: The human lung epithelial cell line H1299 (American Type Culture Collection, CRL-5803) was cultured in a complete medium, consisting of Roswell Park Memorial Institute (RPMI) medium supplemented with 10% fetal calf serum (FCS) and 2 mM L-glutamine at 37 °C and 5% CO2. Cells were stimulated with different concentrations of SaroL-1 in a complete medium for indicated time points.
To investigate the cytotoxic effect of SaroL-1 on human cells, H1299 cells were treated with increasing concentrations of SaroL-1 for 24 h in a standard MTT assay. For the depletion of Gb3 from the plasma membrane, H1299 cells were treated with 2 µM PPMP for 72 h before the experiment. 3.5 × 10^4 cells per well were transferred to a 96-well plate with a U-bottom. The cells were centrifuged at 1600 × g for 3 min at RT. The cell pellet was re-suspended in 100 μL of variously concentrated protein solutions (3, 14, 27, 68, 135, 270, 680, 1360 nM) and transferred to a 96-well flat-bottomed plate. The cells were incubated for 24 h at 37 °C. Subsequently, 10 μL of MTT labelling solution (MTT Cell Proliferation Kit, Roche) was added to each well, and the cells were incubated for 4 h at 37 °C. Then, 100 μL of the solubilisation reagent was added to each well, and the plate was incubated at 37 °C overnight. The next day, the absorbance of the samples was measured at 550 nm using a BioTek microplate reader. To assess SaroL-1 cytotoxicity in the presence of the soluble sugar PNPG, 3.5 × 10^4 cells per well were transferred to a 96-well plate with a U-bottom. Variously concentrated protein solutions (3, 14, 27, 68, 135, 270, 680, 1360 nM) were preincubated with 10 mM PNPG dissolved in complete medium, for 15 min at RT. The cells were centrifuged at 1600 × g for 3 min at RT. Next, the cell pellet was re-suspended in 100 μL protein solution and transferred to a 96-well flat-bottomed plate. The cells were incubated for 24 h at 37 °C, and the MTT assay was performed as described above. The data was further analyzed using GraphPad Prism software.

[3] = molecular target: T1, SaroL-1 (Salpingoeca rosetta, UniProt F2UID9); assay: Inhibition of SaroL-1 (217 nM) induced hemolysis of rabbit erythrocytes after 1 h pre-incubation of lectin with sugar at RT, then 1-2 h at 37 °C, absorbance of supernatant at 540 nm.; type: cell-based; conditions: n = 2
T1 construct: gene PTSG_08235; monomeric in solution
Procedure: Hemolytic assay (HA) and inhibition of hemolytic activity (IHA)
Both HA and IHA assays were performed in U-shaped 96-well microtiter plates. In both cases, a control negative experiment was performed with Buffer A added to erythrocyte solution (2% final concentration), and the resulting value was subtracted from all data.
IHA was performed in U-shaped 96-well microtiter plates. […] 4% rabbit erythrocytes were added to the mixture in a 1:1 ratio and incubated for 1–2 h at 37 °C. The samples were centrifuged, 2600 × g for 15 min at RT, and the absorbance of the supernatant was measured at 540 nm by a Tecan reader.

[4] = Confocal imaging of SaroL-1 binding to FSL-B GUVs; conditions: 200 nM SaroL-1, FSL-B GUVs
From the text: as §1
(§2) GUVs were prepared by the electroformation method as earlier described. Briefly, lipids dissolved in chloroform of a total concentration of 0.5 mg/mL were spread on indium tin oxid-covered (ITO) glass slides and dried in a vacuum for at least 1 h or overnight. […]
(§3) Samples of GUVs and SaroL-1 were imaged using a confocal fluorescence microscope (Nikon Eclipse Ti-E inverted microscope equipped with Nikon A1R confocal laser scanning system, 60x oil immersion objective, NA = 1.49 and four laser lines: 405 nm, 488 nm, 561 nm, and 640 nm). […]

[5] = Confocal imaging of SaroL-1 binding to Gb3 wt GUVs; design: species or system porcine; conditions: 200 nM fluorescent SaroL-1, Gb3 wt GUVs, compared with FSL-Gb3 GUVs
From the text: as §1, §2, §3

[6] = Confocal imaging of SaroL-1 binding to FSL-Gb3 GUVs; conditions: 200 nM fluorescent-labelled SaroL-1, FSL-Gb3 GUVs
From the text: as §1, §2, §3

[7] = Confocal imaging of SaroL-1 binding to FSL-A GUVs; conditions: 200 nM SaroL-1, FSL-A GUVs
From the text: as §1, §2, §3

[8] = Confocal imaging of SaroL-1 binding to DOPC GUVs without glycolipids; conditions: 200 nM SaroL-1, DOPC GUVs without glycolipids (negative control)
From the text: as §1, §2, §3

[9] = 200 nM SaroL-1, 30 min, listed as SaroL1
[10] = 200 nM SaroL-1, 120 min, listed as SaroL1

O=[N+]([O-])c1ccc(O[C@H]2O[C@H](CO)[C@H](O)[C@H](O)[C@H]2O)cc1 [PNPG, p-nitrophenyl-α-D-galactopyranoside]
GUVs filled with dextran-AF488, average % ([1]; 200 nM SaroL-1 pre-treated with 10 mM PNPG, 0 min): 0%
GUVs filled with dextran-AF488, average % ([1]; 200 nM SaroL-1 pre-treated with 10 mM PNPG, 60 min): 0.4205%
GUVs filled with dextran-AF488, average % ([1]; 200 nM SaroL-1 pre-treated with 10 mM PNPG, 120 min): 4% and 4.251%
reduction of SaroL-1-induced cell death ([2]; SaroL-1 (3-1358 nM) pre-incubated with 10 mM PNPG, 24 h): > 90%
IC50 [3]: 2.9 mM

B1: SaroL-1: Recombinant pore-forming lectin of Salpingoeca rosetta (UniProt F2UID9, 329 amino acids) with β-trefoil and aerolysin-like domains (protein)
chain: MSSTFEPATDSPLPVPGVQYFLQHVQSGKYVHPHGGSDMPGNDTALVLHHGFDEKRDALRWVFVNDAENKHQLKHYSSGKFVHPKGGKVGKEATLVVHSSPGRPETMIEMVQEDGRTYLRHTDSDYYVHPHGGSPNPGDNTRLVYYSGYRPSLAFLAIPAETLFVDRIEIHQAQALESINTITSLSDEHRNDTDQPVQTSISVALEESLQDSAQLSFERCFGLKVGSEFEVGLPLVGKTKVSVQFSGSWKSSTIKGEVRTSAVKVQINEHVTIPPGKCVQIRIDTRRCTKTAPATMYLRTASGIEVQRETTVTSTYHYDQEVHVVPVTN
modifications: left off: His6, N-terminal, state not stated
notes: Recombinant pore-forming lectin of Salpingoeca rosetta (UniProt F2UID9, 329 amino acids) with β-trefoil and aerolysin-like domains
GUVs filled with dextran-AF488, average % ([1]; 200 nM SaroL-1, 0 min): 11.106%
GUVs filled with dextran-AF488, average % ([1]; 200 nM SaroL-1, 30 min): 45%
GUVs filled with dextran-AF488, average % [1, 9]: 45.1678%
GUVs filled with dextran-AF488, average % ([1]; 200 nM SaroL-1, 60 min): 57.8615%
GUVs filled with dextran-AF488, average % ([1]; 200 nM SaroL-1, 120 min): 69%
GUVs filled with dextran-AF488, average % [1, 10]: 69.3211%
GUVs filled with 70 kDa FITC-dextran, average % ([1]; 200 nM SaroL-1, 0 min): 4.422%
GUVs filled with 70 kDa FITC-dextran, average % ([1]; 200 nM SaroL-1, 30 min): 17%
GUVs filled with 70 kDa FITC-dextran, average % [1, 9]: 16.9551%
GUVs filled with 70 kDa FITC-dextran, average % ([1]; 200 nM SaroL-1, 60 min): 29%
GUVs filled with 70 kDa FITC-dextran, average % ([1]; 200 nM SaroL-1, 60 min, listed as SaroL1): 28.4248%
GUVs filled with 70 kDa FITC-dextran, average % ([1]; 200 nM SaroL-1, 120 min): 29%
GUVs filled with 70 kDa FITC-dextran, average % [1, 10]: 29.7507%
binding to GUVs [4]: No binding
binding to GUVs [5]: of the same order
reduction of cell viability ([2]; 24 h, 1.36 µM SaroL-1): ~ 87%
IC50 ([2]; 24 h, FCS-containing medium, read-out: concentration at which the percentage of viable cells decreased by half): 271 nM
cytotoxicity on Gb3-depleted cells (in words) ([2]; H1299 pre-treated with PPMP for 72 h, 24 h with SaroL-1): remarkably reduced
binding to GUVs [6]: Strong binding
binding to GUVs [7]: No binding
binding to GUVs [8]: No binding
